Assay [1] has as its target GABABR1a on mouse hippocampal neurons (cultures and slices) (mouse) (UniProt Q9WV18). Briefly: cell-based or functional assay.
The target in assay [2] is GABAB Receptor from rat whole-brain synaptosome extracts (rat). Briefly: affinity pull-down with sAPPα-Fc bait on rat synaptosome extracts, LCLC-MS/MS, three repeats.
GABAB Receptor from rat whole-brain synaptosome extracts (rat), sequence (Q9Z0U4 20-960, chain 1 of 2): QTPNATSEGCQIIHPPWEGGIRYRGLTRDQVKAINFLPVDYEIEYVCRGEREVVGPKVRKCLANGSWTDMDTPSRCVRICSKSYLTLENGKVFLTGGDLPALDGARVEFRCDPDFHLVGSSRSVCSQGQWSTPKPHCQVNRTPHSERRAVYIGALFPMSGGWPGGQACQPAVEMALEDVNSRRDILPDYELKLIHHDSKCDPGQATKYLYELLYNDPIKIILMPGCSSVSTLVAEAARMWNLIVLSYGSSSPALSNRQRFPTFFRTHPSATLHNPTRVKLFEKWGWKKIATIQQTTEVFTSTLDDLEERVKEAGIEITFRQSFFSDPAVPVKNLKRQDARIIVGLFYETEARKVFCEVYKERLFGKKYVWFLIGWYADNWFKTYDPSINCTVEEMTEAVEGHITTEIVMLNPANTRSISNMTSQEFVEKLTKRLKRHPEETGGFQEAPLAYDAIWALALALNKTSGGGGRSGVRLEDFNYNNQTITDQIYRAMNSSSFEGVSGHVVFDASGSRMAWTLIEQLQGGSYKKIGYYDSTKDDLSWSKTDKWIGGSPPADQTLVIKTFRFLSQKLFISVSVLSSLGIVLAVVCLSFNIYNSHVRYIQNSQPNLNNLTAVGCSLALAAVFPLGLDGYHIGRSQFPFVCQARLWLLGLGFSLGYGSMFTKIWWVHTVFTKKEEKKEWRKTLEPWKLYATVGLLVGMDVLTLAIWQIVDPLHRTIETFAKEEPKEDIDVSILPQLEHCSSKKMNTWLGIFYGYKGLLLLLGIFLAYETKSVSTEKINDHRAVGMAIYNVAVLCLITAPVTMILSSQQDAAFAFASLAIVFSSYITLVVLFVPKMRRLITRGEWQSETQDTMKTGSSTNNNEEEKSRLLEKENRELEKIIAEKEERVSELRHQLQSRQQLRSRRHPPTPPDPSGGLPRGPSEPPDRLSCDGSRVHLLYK
GABAB Receptor from rat whole-brain synaptosome extracts (rat), sequence (O88871 41-940, chain 2 of 2, further chain): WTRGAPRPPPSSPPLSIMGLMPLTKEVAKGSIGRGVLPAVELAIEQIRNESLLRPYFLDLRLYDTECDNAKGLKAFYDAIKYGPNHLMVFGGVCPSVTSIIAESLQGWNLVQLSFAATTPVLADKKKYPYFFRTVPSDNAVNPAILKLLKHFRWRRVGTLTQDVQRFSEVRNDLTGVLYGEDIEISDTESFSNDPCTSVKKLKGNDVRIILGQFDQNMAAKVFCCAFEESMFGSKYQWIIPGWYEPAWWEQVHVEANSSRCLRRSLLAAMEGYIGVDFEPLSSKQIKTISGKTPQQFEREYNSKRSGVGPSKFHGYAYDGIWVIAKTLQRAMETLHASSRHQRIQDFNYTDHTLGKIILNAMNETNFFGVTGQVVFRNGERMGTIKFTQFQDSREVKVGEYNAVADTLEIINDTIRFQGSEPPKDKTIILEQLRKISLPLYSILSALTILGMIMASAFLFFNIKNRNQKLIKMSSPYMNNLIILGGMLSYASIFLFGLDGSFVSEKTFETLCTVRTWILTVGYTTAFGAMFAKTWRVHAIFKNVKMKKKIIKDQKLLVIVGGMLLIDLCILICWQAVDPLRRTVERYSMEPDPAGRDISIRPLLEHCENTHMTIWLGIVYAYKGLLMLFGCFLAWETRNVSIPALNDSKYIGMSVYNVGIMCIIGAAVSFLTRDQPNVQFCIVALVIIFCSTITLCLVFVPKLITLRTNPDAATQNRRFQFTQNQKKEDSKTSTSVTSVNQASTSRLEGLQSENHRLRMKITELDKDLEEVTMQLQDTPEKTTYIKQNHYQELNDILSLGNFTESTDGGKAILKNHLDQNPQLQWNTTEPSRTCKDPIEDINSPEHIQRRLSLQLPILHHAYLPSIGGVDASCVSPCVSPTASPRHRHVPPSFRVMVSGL

GABABR1a on mouse hippocampal neurons (cultures and slices) (mouse), sequence (Q9WV18 20-960): as the sequence (Q9Z0U4 20-960, chain 1 of 2) above, with A5V, E108D, V124I, V702I, T850A, L902I counted along it

In assay [1], “sAPLP1 (without Fc) (from UniProt Q03157 38-583) (ligand)” showed a reduction in mIPSC frequency, 250 nM of 17%. In assay [2], “sAPPα-Fc (soluble amyloid precursor protein α fused to human Fc) (from UniProt P12023 18-612) (Fc fusion)” had a summed peptide count of 35 and a summed spectra count of 22.

The values above are taken from patent US20190225662A1.
